Data published in patent US20210380703A1 (RIGEL PHARMACEUTICALS, published 2021).
Numbering of substitutions follows the chain as printed.

B1: 365_H11 (antibody, V domains shown)
VH: EVQLLESGGGLVQPGGSLRLSCAASGFTFSSYSMNWVRQAPGKGLEWVSGINYNSGYTGYADSVKGRFTISRDNSKNTLYLQMNSLRAEDTAVYYCARSANWHDTALDYWGQGTLVTVSS
VL: DIQMTQSPSSLSASVGDRVTITCRASQSILTYLNWYQQKPGKAPKLLIYAATSRASGVPSRFSGSGSGTDFTLTISSLQPEDFATYYCQQSYDSPLTFGGGTKVEIK
notes: VH/VL only
B2: 368_F06 (antibody, V domains shown)
VH: B1 VH with S30D, S31D, N35H, S49A, G50N, S99G, N101T, A106H
VL: B1 VL with T31S, L47V, A51T, D93E, S94N
notes: VH/VL only
B3: 368_C11 (antibody, V domains shown)
VH: B1 VH with S31D, G50S, T58K, G59S, S99G, N101T, A106H
VL: B1 VL with L30I, T31S, S94N
notes: VH/VL only
B4: 366_F04 (antibody, V domains shown)
VH: B1 VH with S31D, S33G, S55G, G59S
VL: B1 VL with T31S, L33V, L47V, A51T, A55H, D93E
notes: VH/VL only
B5: 367_D09 (antibody, V domains shown)
VH: B1 VH with S30D, S33G, S49A, G50S, S55G, T58K, G59S, S99G, N101T, A106H
VL: B1 VL with R54L, S94N
notes: VH/VL only
B6: 366_G09 (antibody, V domains shown)
VH: B1 VH with S30D, S31D, S49A, G50S, S99G, N101T, A106H
VL: B1 VL with T31S, L33V, L47V, S94L
notes: VH/VL only
B7: 367_F09 (antibody, V domains shown)
VH: B1 VH with S30D, N35H, S49A, S55G, G59S, S99G, N101T, A106H
VL: B1 VL with R54L, Y92D, D93S, S94N
notes: VH/VL only
B8: 367_B08 (antibody, V domains shown)
VH: B1 VH with S31D, S33G, S55G, T58K
VL: B1 VL with L47V, S94N
notes: VH/VL only
B9: 366_F07 (antibody, V domains shown)
VH: B1 VH with S31D, S49A, G59S, A106H
VL: B1 VL with L30I, D93E, S94T
notes: VH/VL only
B10: 367_B03 (antibody, V domains shown)
VH: B1 VH with S33G, S49A, S55G, T58K, G59S
VL: B1 VL with R54L, D93N, S94L
notes: VH/VL only
B11: 368_B02 (antibody, V domains shown)
VH: B1 VH with S33G, T58K, G59S, S99G, N101T, A106H
VL: not shown
notes: VH/VL only
B12: 365_H12 (antibody, V domains shown)
VH: B1 VH with G50N, S55G, T58K, G59S, A106H
VL: B1 VL with L30I, L33V, D93S, S94T
notes: VH/VL only
B13: 368_D02 (antibody, V domains shown)
VH: B1 VH with S30D, S31D, S33G, G50N, S55G, S99G, N101T, A106H
VL: B1 VL with L30S, L47V, A55H, S94T
notes: VH/VL only
B14: 367_D05 (antibody, V domains shown)
VH: B1 VH with S31D, G50S, S55G, T58K, G59S, S99G, N101T, A106H
VL: B1 VL with L30I, T31S, L33V, L47V, R54L
notes: VH/VL only
B15: 367_C08 (antibody, V domains shown)
VH: B1 VH with S30D, N35H, S49A, S55G, G59S, S99G, N101T, A106H
VL: B1 VL with R54L, Y92D, D93S, S94N
notes: VH/VL only
B16: 367_A04 (antibody, V domains shown)
VH: B1 VH with G50N, T58K, G59S
VL: B1 VL with L30I, Y92D
notes: VH/VL only
B17: 367_A05 (antibody, V domains shown)
VH: B1 VH with S31D, S33G, G50S, S55G, T58K
VL: B1 VL with T31S, L47V, A51V
notes: VH/VL only
B18: 366_F05 (antibody, V domains shown)
VH: B1 VH with S49A, G50N, T58K, G59S, A106H
VL: B1 VL with Y92D, D93N, S94T
notes: VH/VL only
B19: 366_F08 (antibody, V domains shown)
VH: B1 VH with S33G, G50S, S55G, G59S, S99G, N101T, A106H
VL: not shown
notes: VH/VL only
B20: 366_H06 (antibody, V domains shown)
VH: B1 VH with S33G, G50S, S55G
VL: B1 VL with T31S, A51T, S94T
notes: VH/VL only
B21: 367_B06 (antibody, V domains shown)
VH: B1 VH with S49A, G50N, S55G, S99G, N101T, A106H
VL: B1 VL with L30I, T31S, L33V, L47V, R54L, A55H, D93N
notes: VH/VL only
B22: 366_D08 (antibody, V domains shown)
VH: B1 VH with S33G, N35H, G50N, S55G, T58K, G59S, S99G, N101T, A106H
VL: B1 VL with T31S, L33V, L47V, R54L, D93E, S94N
notes: VH/VL only
B23: 366_D04 (antibody, V domains shown)
VH: B1 VH with S55G, G59S
VL: B1 VL with L30S, T31S, L33V, A51T, D93E, S94T
notes: VH/VL only
B24: 367_H05 (antibody, V domains shown)
VH: B1 VH with S33G, N35H, S49A, G50S, T58K, G59S, S99G, N101T, A106H
VL: not shown
notes: VH/VL only
B25: 366_B12 (antibody, V domains shown)
VH: B1 VH with S49A, T58K
VL: B1 VL with L33V, S94N
notes: VH/VL only
B26: 366_H08 (antibody, V domains shown)
VH: B1 VH with S31D, S33G, S49A, G50S, G59S, A106H
VL: B1 VL with T31S, L33V, A55H, D93N, S94N
notes: VH/VL only
B27: 366_B08 (antibody, V domains shown)
VH: B1 VH with S30D, S33G, G50N, S55G, T58K, A106H
VL: B1 VL with L30V, T31S, A55H, S94N
notes: VH/VL only
B28: 367_H10 (antibody, V domains shown)
VH: B1 VH with S33G, S49A, G50S, S55G, S99G, N101T, A106H
VL: B1 VL with T31S, L33V, L47V, D93E, S94L
notes: VH/VL only
B29: 367_A02 (antibody, V domains shown)
VH: B1 VH with S30D, S33G, G50S, T58K, S99G, N101T, A106H
VL: B1 VL with L30I, T31S, A51V, S94T
notes: VH/VL only
B30: 366_B10 (antibody, V domains shown)
VH: B1 VH with S33G, G59S
VL: B1 VL with L30I, T31S, S94N
notes: VH/VL only
B31: 367_B07 (antibody, V domains shown)
VH: B1 VH with S31D, S49A, A106H
VL: B1 VL with L30I, T31S, L33V, R54L, D93N, S94L
notes: VH/VL only
B32: 367_E12 (antibody, V domains shown)
VH: B1 VH with S33G, N35H, S49A, G50S, S55G, G59S, S99G, N101T, A106H
VL: B1 VL with L33V, T52S, R54L, A55Q, D93N
notes: VH/VL only
B33: 368_D12 (antibody, V domains shown)
VH: B1 VH with S33G, G50S, S55G, G59S, S99G, N101T, A106H
VL: B1 VL with T31S, L33V, L47V, D93N, S94N
notes: VH/VL only
B34: 366_G04 (antibody, V domains shown)
VH: B1 VH with G59S
VL: B1 VL with L30I, Y92D, S94T
notes: VH/VL only
B35: 367_E07 (antibody, V domains shown)
VH: B1 VH with S31D, G50S, S55G, T58K, S99G, N101T, A106H
VL: B1 VL with T31S, L33V, L47V, D93E, S94N
notes: VH/VL only

Key:
Goat anti-Human Kappa = target: T1, Goat anti-Human Kappa; experiment: ELISA; positive control
T1 construct: Positive control; also called biotinylated goat anti-human kappa light chain
Protocol: (§1) The binding of ACVR2A-specific monoclonal antibodies to human ACVR2A, mouse ACVR2A, biotinylated goat anti-human kappa light chain (positive control) and human Fc (negative control) were determined by ELISA.

Human ACVR2A = target: T2, Human ACVR2A (human, UniProt P27037 20-135, limits assumed); experiment: ELISA
T2 construct: also called activin receptor, type II A
T2 sequence (P27037 20-135 limits assumed): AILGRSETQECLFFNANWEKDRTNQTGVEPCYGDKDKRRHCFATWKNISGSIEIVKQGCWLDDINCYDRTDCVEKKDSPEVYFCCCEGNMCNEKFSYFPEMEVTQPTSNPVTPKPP
Protocol: as §1

Mouse ACVR2A = Mouse ACVR2A (mouse, UniProt P27038 20-135, limits assumed); experiment: ELISA
Chain of Mouse ACVR2A (P27038 20-135 limits assumed): as the sequence (P27037 20-135 limits assumed) above, with K20R, V73I counted along it
Protocol: as §1
Further: test concentration or dose not given here.

| Binder | optical density (Goat anti-Human Kappa) [OD] | optical density (Human ACVR2A) [OD] | optical density (Mouse ACVR2A) [OD] |
| --- | --- | --- | --- |
| B1 | 3.61 | 3.24 | 3.35 |
| B2 | 3.31 | 1.6 | 1.68 |
| B3 | 3.56 | 2.03 | 2.21 |
| B4 | 3.37 | 1.73 | 1.91 |
| B5 | 3.37 | 2.15 | 2.04 |
| B6 | 3.44 | 1.85 | 2.04 |
| B7 | 3.46 | 1.79 | 1.82 |
| B8 | 3.03 | 2.13 | 2.25 |
| B9 | 3.47 | 2.39 | 2.53 |
| B10 | 3.44 | 2.48 | 2.66 |
| B11 | 3.61 | 2.08 | 2.24 |
| B12 | 3.78 | 2.97 | 2.91 |
| B13 | 3.52 | 1.93 | 2.26 |
| B14 | 3.34 | 1.26 | 1.37 |
| B15 | 3.05 | 1.12 | 1.22 |
| B16 | 3.3 | 2.14 | 2.2 |
| B17 | 3.38 | 2.22 | 2.38 |
| B18 | 3.25 | 2.19 | 2.67 |

| Binder | optical density (Goat anti-Human Kappa) [OD] | optical density (Human ACVR2A) [OD] | optical density (Mouse ACVR2A) [OD] |
| --- | --- | --- | --- |
| B19 | 3.47 | 1.86 | 2 |
| B20 | 3.39 | 2.29 | 2.59 |
| B21 | 3.02 | 1.82 | 1.89 |
| B22 | 3.65 | 2.17 | 2.46 |
| B23 | 3.46 | 2.08 | 2.12 |
| B24 | 3.59 | 2.44 | 2.7 |
| B25 | 3.44 | 3.24 | 2.99 |
| B26 | 3.55 | 2.59 | 2.77 |
| B27 | 3.05 | 2.15 | 2.38 |
| B28 | 3.55 | 2.58 | 2.35 |
| B29 | 3.58 | 2.23 | 2.42 |
| B30 | 3.06 | 2.33 | 2.44 |
| B31 | 3.34 | 1.42 | 1.49 |
| B32 | 3.71 | 2.69 | 2.91 |
| B33 | 3.57 | 2.25 | 2.28 |
| B34 | 3.29 | 1.85 | 2.18 |
| B35 | 3.21 | 1.94 | 2.06 |
